Experimental data reported in patent US20190322729A1.

Experiments:
[1] = system: T1, H1.0K180me2 peptide AKPVKASKPKKAKPVK(me2)PK
T1 sequence: AKPVKASKPKKAKPVKPK

[2] = system: T2, unmodified H1.0 peptide AKPVKASKPKKAKPVKPK
T2 sequence: AKPVKASKPKKAKPVKPK

G9A methyltransferase (recombinant, NEB M0235S)
in vitro methylation, LC-MS: further methylated product H1.0K166me1K180me2 [1]: 1.27% of the total peptide in the reaction
in vitro methylation, LC-MS: further methylated product H1.0K174me1K180me3 [1]: 1.06% of the total peptide in the reaction
in vitro methylation, LC-MS: further methylated product H1.0K174me3K175me3K177me1K180me2 [1]: 0.35% of the total peptide in the reaction
in vitro methylation, LC-MS: share of peptides further methylated [1]: only 2.64% of peptides are further methylated
in vitro methylation with tritium-labeled methyl donor, autoradiography [2]: The appearance of a band at 4 kDa shows that The G9A methyltransferase capable of methylating H1.0 peptide
in vitro methylation, LC-MS spectral counts: share of peptides dimethylated at K180 [2]: 99.9% of all peptides

GLP methyltransferase (recombinant, Cayman Chemical 10755)
in vitro methylation, LC-MS: share of peptides further methylated [1]: 1.02% of peptides are further methylated
in vitro methylation, LC-MS spectral counts: share of peptides dimethylated at K180 [2]: 96.6% of all peptides
